Data from PMC11951046.

Key:
[1] = target: activated Cyt2Aa2 protein (chymotrypsin-activated) (Bacillus thuringiensis subsp. darmstadiensis); assay: SDS-PAGE ladder pattern of unheated sample with immunodetection
[2] = target: Cyt2Aa2 protoxin (Bacillus thuringiensis subsp. darmstadiensis); assay: SDS-PAGE of unheated sample with immunodetection

Q: How did the stoichiometry N [1] turn out when “activated Cyt2Aa2 protein (chymotrypsin-activated) (natural protein)” was run?
A: > 10

Q: Which stoichiometry N [2] does the source give for Cyt2Aa2 protoxin (natural protein) here?
A: 2
